Target: T1, GST-Zc3h10 full length (UniProt Q8R205 1-435)
T1 sequence: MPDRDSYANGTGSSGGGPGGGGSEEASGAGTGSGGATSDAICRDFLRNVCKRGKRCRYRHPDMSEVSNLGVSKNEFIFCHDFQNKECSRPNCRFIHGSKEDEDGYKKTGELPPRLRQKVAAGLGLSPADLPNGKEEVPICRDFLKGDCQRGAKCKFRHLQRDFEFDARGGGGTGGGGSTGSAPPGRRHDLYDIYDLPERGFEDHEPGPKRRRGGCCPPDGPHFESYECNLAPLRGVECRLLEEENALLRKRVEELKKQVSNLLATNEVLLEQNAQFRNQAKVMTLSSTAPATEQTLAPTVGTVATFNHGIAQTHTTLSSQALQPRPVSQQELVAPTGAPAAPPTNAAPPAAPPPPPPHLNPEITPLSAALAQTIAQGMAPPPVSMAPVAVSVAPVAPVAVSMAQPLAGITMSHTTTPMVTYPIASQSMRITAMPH
Experiment: EMSA

B1: -4.6 kb UCP1 probe (dsDNA)
DNA 1: TTTACCAAGTCCTTTCCACCGTGCAGGACGCACCATTCGGCAGCTTCCAGTTGTCTGGGAACTTCCAGTTGAAGGGATGA
DNA 2: TCATCCCTTCAACTGGAAGTTCCCAGACAACTGGAAGCTGCCGAATGGTGCGTCCTGCACGGTGGAAAGGACTTGGTAAA
binding result: binds
